Source: patent publication US20200079833A1 (AstraZeneca / MedImmune, published 2020)
Starred links: 1 amine or outer side, 2 acyl side, 3 side chain; linkers in the order of their positions; H or OH if unused. Non-standard residues stand in square brackets, D forms with d. Groups on a side chain read outwards from the residue. Primed or numbered codes have the meaning given here. No end group written: not given here. *: point of attachment. Dodecanoyl(12-OPh(4-COOH)) = O=C(O)c1ccc(OCCCCCCCCCCCC(=O)*)cc1; γGlu = O=C(O)[C@H](CCC(=O)[*:2])N[*:1]; Stearoyl = CCCCCCCCCCCCCCCCCC(=O)*; αMeF = C[C@](N)(Cc1ccccc1)C(=O)O; αMeK = C[C@](N)(CCCCN)C(=O)O; αMeS = C[C@](N)(CO)C(=O)O; PEG2′ = not defined here; Aib = CC(C)(N)C(=O)O

T1: glucose-dependent insulinotropic peptide (gastric inhibitory polypeptide) receptor (human, UniProt P48546 22-466)
T1 sequence (looked up): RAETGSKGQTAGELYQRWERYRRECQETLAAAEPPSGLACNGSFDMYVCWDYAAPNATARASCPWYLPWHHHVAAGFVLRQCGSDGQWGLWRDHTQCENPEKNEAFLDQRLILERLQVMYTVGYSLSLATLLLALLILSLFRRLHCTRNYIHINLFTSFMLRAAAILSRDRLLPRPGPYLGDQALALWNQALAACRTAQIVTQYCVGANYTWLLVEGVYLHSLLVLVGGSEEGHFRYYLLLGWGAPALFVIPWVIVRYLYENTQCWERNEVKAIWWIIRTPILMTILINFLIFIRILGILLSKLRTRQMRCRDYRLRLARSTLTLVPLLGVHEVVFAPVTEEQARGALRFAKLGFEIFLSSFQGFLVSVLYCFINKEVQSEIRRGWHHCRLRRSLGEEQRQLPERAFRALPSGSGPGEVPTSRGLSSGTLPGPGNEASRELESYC

T2: glucose-dependent insulinotropic peptide (gastric inhibitory polypeptide) receptor (GIPR) (human, UniProt P48546 22-466)
T2 sequence (looked up): T1 sequence (looked up)

B1: SEQ ID NO 24 (peptide)
peptide: H[Aib]EGTFT[Aib]DV[Aib]SYLEGQAAKEFIAWLVKGR-NH2
modifications: N-terminus assumed
SMILES: CC[C@H](C)[C@H](NC(=O)[C@H](Cc1ccccc1)NC(=O)[C@H](CCC(=O)O)NC(=O)[C@H](CCCCN)NC(=O)[C@H](C)NC(=O)[C@H](C)NC(=O)[C@H](CCC(N)=O)NC(=O)CNC(=O)[C@H](CCC(=O)O)NC(=O)[C@H](CC(C)C)NC(=O)[C@H](Cc1ccc(O)cc1)NC(=O)[C@H](CO)NC(=O)C(C)(C)NC(=O)[C@@H](NC(=O)[C@H](CC(=O)O)NC(=O)C(C)(C)NC(=O)[C@@H](NC(=O)[C@H](Cc1ccccc1)NC(=O)[C@@H](NC(=O)CNC(=O)[C@H](CCC(=O)O)NC(=O)C(C)(C)NC(=O)[C@@H](N)Cc1c[nH]cn1)[C@@H](C)O)[C@@H](C)O)C(C)C)C(=O)N[C@@H](C)C(=O)N[C@@H](Cc1c[nH]c2ccccc12)C(=O)N[C@@H](CC(C)C)C(=O)N[C@H](C(=O)N[C@@H](CCCCN)C(=O)NCC(=O)N[C@@H](CCCNC(=N)N)C(N)=O)C(C)C
B2: SEQ ID NO 18 (peptide)
peptide: H[Aib]EGS[αMeF]T[αMeS]DV[αMeS]S[αMeF]LEGEAA[αMeK]E[αMeF]IA[αMeF]VV[αMeK]GG-NH2
modifications: N-terminus assumed
SMILES: CC[C@H](C)[C@H](NC(=O)[C@](C)(Cc1ccccc1)NC(=O)[C@H](CCC(=O)O)NC(=O)[C@](C)(CCCCN)NC(=O)[C@H](C)NC(=O)[C@H](C)NC(=O)[C@H](CCC(=O)O)NC(=O)CNC(=O)[C@H](CCC(=O)O)NC(=O)[C@H](CC(C)C)NC(=O)[C@](C)(Cc1ccccc1)NC(=O)[C@H](CO)NC(=O)[C@](C)(CO)NC(=O)[C@@H](NC(=O)[C@H](CC(=O)O)NC(=O)[C@](C)(CO)NC(=O)[C@@H](NC(=O)[C@](C)(Cc1ccccc1)NC(=O)[C@H](CO)NC(=O)CNC(=O)[C@H](CCC(=O)O)NC(=O)C(C)(C)NC(=O)[C@@H](N)Cc1c[nH]cn1)[C@@H](C)O)C(C)C)C(=O)N[C@@H](C)C(=O)N[C@@](C)(Cc1ccccc1)C(=O)N[C@H](C(=O)N[C@H](C(=O)N[C@@](C)(CCCCN)C(=O)NCC(=O)NCC(N)=O)C(C)C)C(C)C
B3: SEQ ID NO 25 (peptide)
peptide: H[Aib]EGS[αMeF]TGDV[αMeS]S[αMeF]LEGEAA[αMeK]E[αMeF]IA[αMeF]VV[αMeK]GG-NH2
modifications: N-terminus assumed
SMILES: CC[C@H](C)[C@H](NC(=O)[C@](C)(Cc1ccccc1)NC(=O)[C@H](CCC(=O)O)NC(=O)[C@](C)(CCCCN)NC(=O)[C@H](C)NC(=O)[C@H](C)NC(=O)[C@H](CCC(=O)O)NC(=O)CNC(=O)[C@H](CCC(=O)O)NC(=O)[C@H](CC(C)C)NC(=O)[C@](C)(Cc1ccccc1)NC(=O)[C@H](CO)NC(=O)[C@](C)(CO)NC(=O)[C@@H](NC(=O)[C@H](CC(=O)O)NC(=O)CNC(=O)[C@@H](NC(=O)[C@](C)(Cc1ccccc1)NC(=O)[C@H](CO)NC(=O)CNC(=O)[C@H](CCC(=O)O)NC(=O)C(C)(C)NC(=O)[C@@H](N)Cc1c[nH]cn1)[C@@H](C)O)C(C)C)C(=O)N[C@@H](C)C(=O)N[C@@](C)(Cc1ccccc1)C(=O)N[C@H](C(=O)N[C@H](C(=O)N[C@@](C)(CCCCN)C(=O)NCC(=O)NCC(N)=O)C(C)C)C(C)C
B4: SEQ ID NO 17 (peptide)
peptide: H[Aib]EGS[αMeF]TSDV[αMeS]S[αMeF]LEGEAA[αMeK]E[αMeF]IA[αMeF]VV[αMeK]GG-NH2
modifications: N-terminus assumed
SMILES: CC[C@H](C)[C@H](NC(=O)[C@](C)(Cc1ccccc1)NC(=O)[C@H](CCC(=O)O)NC(=O)[C@](C)(CCCCN)NC(=O)[C@H](C)NC(=O)[C@H](C)NC(=O)[C@H](CCC(=O)O)NC(=O)CNC(=O)[C@H](CCC(=O)O)NC(=O)[C@H](CC(C)C)NC(=O)[C@](C)(Cc1ccccc1)NC(=O)[C@H](CO)NC(=O)[C@](C)(CO)NC(=O)[C@@H](NC(=O)[C@H](CC(=O)O)NC(=O)[C@H](CO)NC(=O)[C@@H](NC(=O)[C@](C)(Cc1ccccc1)NC(=O)[C@H](CO)NC(=O)CNC(=O)[C@H](CCC(=O)O)NC(=O)C(C)(C)NC(=O)[C@@H](N)Cc1c[nH]cn1)[C@@H](C)O)C(C)C)C(=O)N[C@@H](C)C(=O)N[C@@](C)(Cc1ccccc1)C(=O)N[C@H](C(=O)N[C@H](C(=O)N[C@@](C)(CCCCN)C(=O)NCC(=O)NCC(N)=O)C(C)C)C(C)C

target: GLP-1 receptor (human, UniProt P43220 24-463); experiment: cell-based or functional assay

Primary assay EC50 (cAMP), Mean pM GLP-1R [pM]	Primary assay EC50 (cAMP), n1 [nM]	Primary assay EC50 (cAMP), n2 [nM]	Binder
118	0.12	0.12	HXEGTFTSDVXSYLEGQAAKEFIAWLVKGR (Aib 2; Aib 11; C-terminal amide) [SEQ ID NO 22]
5600	3.3	7.9	B1
6.5	0.0075	0.0055	HXEGTFTSDVSSYLEGQAAKEFIAWLVKGRK (Aib 2; K(ε-γE-Palmitoyl) after R30; C-terminal amide) [SEQ ID NO 5]
13400	15	12	HXEGTFTXDVSSYLEGQAAKEFIAWLVKGR (Aib 2; Aib 8; C-terminal amide) [SEQ ID NO 20]
4940	4.1	5.8	B2
544	0.5	0.59	B3
100	0.064	0.14	H[Aib]EGS[αMeF]TSDV[αMeS]S[αMeF]LEGEAAK([PEG2′-PEG2′-γGlu-Stearoyl])E[αMeF]IA[αMeF]VV[αMeK]GG-NH2 [SEQ ID NO 3]
0.2	0.00025	0.00024	B4

target: glucagon receptor (human, UniProt P47871 26-477); experiment: cell-based or functional assay
Sequence (P47871 26-477): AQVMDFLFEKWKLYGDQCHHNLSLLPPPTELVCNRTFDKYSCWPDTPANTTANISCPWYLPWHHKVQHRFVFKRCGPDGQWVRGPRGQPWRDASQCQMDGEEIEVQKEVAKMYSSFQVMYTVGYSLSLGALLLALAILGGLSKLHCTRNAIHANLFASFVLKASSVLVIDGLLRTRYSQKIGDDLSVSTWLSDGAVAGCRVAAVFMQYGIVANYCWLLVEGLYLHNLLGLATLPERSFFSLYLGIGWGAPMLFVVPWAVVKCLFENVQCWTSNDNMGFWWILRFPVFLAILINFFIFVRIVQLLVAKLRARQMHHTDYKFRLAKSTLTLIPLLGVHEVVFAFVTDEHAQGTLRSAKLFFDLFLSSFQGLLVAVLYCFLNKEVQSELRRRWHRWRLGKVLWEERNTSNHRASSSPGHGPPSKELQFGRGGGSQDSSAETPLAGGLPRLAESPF

Primary assay EC50 (cAMP), n1 [nM]	Primary assay EC50 (cAMP), n2 [nM]	Binder
390	240	HXEGTFTSDVXSYLEGQAAKEFIAWLVKGR (Aib 2; Aib 11; C-terminal amide) [SEQ ID NO 22]
740	740	B1
340	340	HXEGTFTSDVSSYLEGQAAKEFIAWLVKGR (Aib 2; α-MeSer 11; C-terminal amide) [SEQ ID NO 21]
81	81	HXEGTFTSDVSSYLEGQAAKEFIAWLVKGRK (Aib 2; K(ε-γE-Palmitoyl) after R30; C-terminal amide) [SEQ ID NO 5]
290	290	HXEGTFTXDVSSYLEGQAAKEFIAWLVKGR (Aib 2; Aib 8; C-terminal amide) [SEQ ID NO 20]
540	540	HXEGTFTSDVSSYLEGQAAKEFIAWLVKGR (Aib 2; α-MeSer 8; α-MeSer 11; C-terminal amide) [SEQ ID NO 23]
130	130	HXEGTFTSDVSSYLEGQAAKEFIAWLVKGR (Aib 2; α-MeSer 8; C-terminal amide) [SEQ ID NO 19]
100	100	B2
100	22	B3
25	25	H[Aib]EGS[αMeF]TSDV[αMeS]S[αMeF]LEGEAAK([PEG2′-PEG2′-γGlu-Stearoyl])E[αMeF]IA[αMeF]VV[αMeK]GG-NH2 [SEQ ID NO 3]
31	31	B4

target: T1, glucose-dependent insulinotropic …; experiment: cell-based or functional assay

Primary assay EC50 (cAMP), n1 [nM]	Primary assay EC50 (cAMP), n2 [nM]	Binder
480	480	HXEGTFTSDVXSYLEGQAAKEFIAWLVKGR (Aib 2; Aib 11; C-terminal amide) [SEQ ID NO 22]
740	740	B1
340	340	HXEGTFTSDVSSYLEGQAAKEFIAWLVKGR (Aib 2; α-MeSer 11; C-terminal amide) [SEQ ID NO 21]
81	81	HXEGTFTSDVSSYLEGQAAKEFIAWLVKGRK (Aib 2; K(ε-γE-Palmitoyl) after R30; C-terminal amide) [SEQ ID NO 5]
290	290	HXEGTFTXDVSSYLEGQAAKEFIAWLVKGR (Aib 2; Aib 8; C-terminal amide) [SEQ ID NO 20]
540	540	HXEGTFTSDVSSYLEGQAAKEFIAWLVKGR (Aib 2; α-MeSer 8; α-MeSer 11; C-terminal amide) [SEQ ID NO 23]
130	130	HXEGTFTSDVSSYLEGQAAKEFIAWLVKGR (Aib 2; α-MeSer 8; C-terminal amide) [SEQ ID NO 19]
100	100	B2
100	100	B3
25	25	H[Aib]EGS[αMeF]TSDV[αMeS]S[αMeF]LEGEAAK([PEG2′-PEG2′-γGlu-Stearoyl])E[αMeF]IA[αMeF]VV[αMeK]GG-NH2 [SEQ ID NO 3]
31	31	B4

target: GLP-1 receptor (GLP-1R) (human, UniProt P43220 24-463); experiment: cell-based or functional assay

cAMP Mean pM GLP-1R [pM]	cAMP Primary assay EC50 GLP-1R n1 [nM]	cAMP Primary assay EC50 GLP-1R n2 [nM]	Binder
21	0.027	0.015	H[Aib]EGS[αMeF]TSDV[αMeS]S[αMeF]LEGEAAK([PEG2′-PEG2′-PEG2′-Dodecanoyl(12-OPh(4-COOH))])E[αMeF]IA[αMeF]VV[αMeK]GG-NH2 [SEQ ID NO 145]
12.6	0.016	0.0096	H[Aib]EGS[αMeF]TSDV[αMeS]S[αMeF]LEGEAAK([PEG2′-PEG2′-Dodecanoyl(12-OPh(4-COOH))])E[αMeF]IA[αMeF]VV[αMeK]GG-NH2 [SEQ ID NO 144]

target: glucagon receptor (GCGR) (human, UniProt P47871 26-477); experiment: cell-based or functional assay
Sequence (P47871 26-477): as the sequence (P47871 26-477) above

cAMP Primary assay EC50 Gluc-R [nM]	cAMP Primary assay EC50 Gluc-R (2nd) [nM]	Binder
25	25	H[Aib]EGS[αMeF]TSDV[αMeS]S[αMeF]LEGEAAK([PEG2′-PEG2′-PEG2′-Dodecanoyl(12-OPh(4-COOH))])E[αMeF]IA[αMeF]VV[αMeK]GG-NH2 [SEQ ID NO 145]
26	26	H[Aib]EGS[αMeF]TSDV[αMeS]S[αMeF]LEGEAAK([PEG2′-PEG2′-Dodecanoyl(12-OPh(4-COOH))])E[αMeF]IA[αMeF]VV[αMeK]GG-NH2 [SEQ ID NO 144]

target: T2, glucose-dependent insulinotropic …; experiment: cell-based or functional assay

cAMP Primary assay EC50 GIP-R [nM]	cAMP Primary assay EC50 GIP-R (2nd) [nM]	Binder
25	25	H[Aib]EGS[αMeF]TSDV[αMeS]S[αMeF]LEGEAAK([PEG2′-PEG2′-PEG2′-Dodecanoyl(12-OPh(4-COOH))])E[αMeF]IA[αMeF]VV[αMeK]GG-NH2 [SEQ ID NO 145]
26	26	H[Aib]EGS[αMeF]TSDV[αMeS]S[αMeF]LEGEAAK([PEG2′-PEG2′-Dodecanoyl(12-OPh(4-COOH))])E[αMeF]IA[αMeF]VV[αMeK]GG-NH2 [SEQ ID NO 144]
